Data reported in publication PMC7350312.
pKd: −log10 of the molar value.

Molecular target: HIV-1 CRF07_BC gp120 recombinant protein (HIV-1 CRF07_BC)
Test: SPR; format not shown (protocol in the supplement)

recombinant human galectin-3 (from UniProt P17931 1-250)
pKd: 8.15
